First the molecules themselves.
B1: mAb352 (antibody, V domains shown)
VH: EVQLVESGGGLVKPGGSLRLSCAASGFSFSEYRMNWVRQAPGKGLEWVSFISSSGTYIDYADSVKGRFTISRDNVNNSLYLQMNNLRAGDTAVYYCARGMGIAVRRFDYWGQGTLVSVSS
VL: SYVLTQPPSVSVAPGQTAKITCGGNNIGSESVHWYQQKPGQAPVLVVYDDAVRPSGIPERFSGSNSRNTATLTISRVEAGDEAAYYCQVWDSSTVASFGGGTKLTVL
B2: mAb1488 (antibody, V domains shown)
VH: EVHLVESGGGLVKPGGSLRLSCAASGFTFSSYTMNWVRQAPGKGLEWVSSISSSSTYIYYADSVRGRFTISRDNAKNSLYLQMNSLRAEDSAVYYCARRAGGFDAYYFDYWGQGTLVTVSS
VL: not shown
B3: mAb236 (antibody, V domains shown)
VH: EVQLVESGGGLVQPGGSLRLSCVASGFNFTTYSMNWVRQAPGKGLEWVSYISSHSNLIYYATSVKGRFTISRDNAKNSLYLQMNSLRAEDTALYYCARGGSLHPSAGADWIDPWGQGTLVTVSS
VL: SYELTQAPSVSVSPGQTATITCSGDKLGDKFTSWYQQKPGQSPVLVIYQDSKRPSGIPERFSASNSGNTATLTISGTRAMDEADYYCQAWDSNTYVFGTGTRVAVL
B4: mAb1512 (antibody, V domains shown)
VH: KVQLVQSGGGVVQPGRSQRLSCAASGLTLSEYAMHWVRQAPGKGLEWVAVILSDGTKKEYADSVKGRFTISRDNSKNTLYLQMNSLRAEDTAVYYCATDDNILGHCRSKSCQRNYYHGMDVWGQGTTVSVSS
VL: DIVMTQSPLSLPVTPGEPASISCRSSQSLLHSNGKNYLDWYLQKPGQSPQLLIYLGSDRASGVPDRFSGSGSGTDFTLSISRVEAEDVGVYYCMQALQTPFTFGPGTKVDIK
B5: mAb234 (antibody, V domains shown)
VH: EVQLVESGGGLVKPGGSLRLSCAASGFNFSTHIMNWVRQAPGKGLEWVSSISSSGTYIYYADSMKGRFTISRDNPKNSLYLQMNSLRAEDTAVYYCARARGFIQFHYYMDVWGKGTTVAVSS
VL: SYVLTQPPSVSVAPGKTARITCGGNNIGSKSVHWHQQRPGQAPVLVVYDDKIRPSGIPERFSGSNSGNTATLIISRVEAGDEADYYCQVWHSSSDPVVFGGGTKLTVL

The target in the assay is reference 3D7 ctCSP peptide (P. falciparum 3D7). In words: SPR.
What is called Kd is the free concentration of one partner at which half of the binding sites on the other are occupied at equilibrium, for simple one-to-one binding. High values mean a looser complex, low ones a tighter complex. The molecule B1 showed an equilibrium dissociation constant (Kd) of 11.6 pM. For B2, binding was characterised by a dissociation constant (Kd) of 360 pM. Turning to B3, binding was put at a Kd of 2.78 pM. To B4 belongs 29.1 pM; to B5, 3.77 pM.

Values taken from publication PMC8989322 (2022).
